As usually defined, the IC50 is the concentration that gives 50% inhibition. One may read the Kd as the concentration at which binding is half-saturated.

Two molecules from paper PMC9525012, “Characterization of sabatolimab, a novel immunotherapy with immuno-myeloid activity directed against TIM-3 receptor” (Immunotherapy Advances, 2022) can be followed below.

Several values for one entry are separate records, joined by “and”; a condition that tells them apart may be missing. Equal entries are not always repeated.

Assay [1] addresses human TIM-3-Fc fusion protein (human) (UniProt Q8TDQ0). Briefly: other; competition with SULFO-TAG galectin-9, MSD.
For assay [2], the target named is cynomolgus monkey TIM-3 expressed on 300.19 cells (cynomolgus monkey). Nature of the assay: flow cytometry on cells; 300.19 cells expressing human or cynomolgus TIM-3 incubated with titrated sabatolimab at 4°C for 4 hours; PE anti-hIgG secondary; Kd from best-fit binding curves (GraphPad Prism).
Assay [3] deals with T1, human TIM-3 expressed on 300.19 cells (human, UniProt Q8TDQ0 22-301).
T1 construct: TIM-3, human, expressed on the surface of 300.19 cells; Also used for the functional rows on cells that express human TIM-3 (Raji hTIM-3 o.e., HNT-34, dendritic cells); source: 300.19 cells engineered to express human TIM-3 (lab of Gordon Freeman)
Described as above. The settings on record: one partner purified.

In assay [4] the target is T2, recombinant human TIM-3/His (human, UniProt Q8TDQ0 22-202).
T2 construct: T-cell immunoglobulin domain and mucin domain-3 (TIM-3), human; Probably the extracellular domain (surmised); also called human recombinant TIM-3; source: bought: Sino Biological Inc
Nature of the assay: SPR; Biacore; sabatolimab captured (~50 RU) by a human Fab capture antibody amine-coupled on a CM5 chip; TIM-3/His as analyte, 90 nM diluted 1:3, seven concentrations, HBS-EP+ buffer; 1:1 binding model, double reference subtraction. The settings on record: both partners purified. On the technique in general: In SPR one partner is held on a chip, and binding of the other changes the refractive index at the surface.

In assay [1], sabatolimab Fab'2 came in with an IC50 of 9.81 nM.

B1: Sabatolimab, humanized anti-TIM-3 monoclonal antibody (hIgG4, S228P) (antibody, V domains shown)
VH: QVQLVQSGAEVKKPGSSVKVSCKASGYTFTSYNMHWVRQAPGQGLEWMGDIYPGNGDTSYNQKFKGRVTITADKSTSTVYMELSSLRSEDTAVYYCARVGGAFPMDYWGQGTTVTVSS
VL: AIQLTQSPSSLSASVGDRVTITCRASESVEYYGTSLMQWYQQKPGKAPKLLIYAASNVESGVPSRFSGSGSGTDFTLTISSLQPEDFATYFCQQSRKDPSTFGGGTKVEIKR
notes: whole heavy chain as printed; whole kappa light chain as printed; IgG4/kappa; humanized from the murine monoclonal antibody 22C1; also called MBG453; sabatolimab whole antibody; source: CHO cells, transiently produced (told of the ten selected humanized clones)
For the molecule B1, the Kd was 0.9 nM in assay [2]; 0.5 ± 0.1 nM in assay [3]; 0.176 nM and 0.162 nM and 0.163 nM in assay [4].
